# From paper PMC2542469 (The Journal of Cell Biology, 2008)
# T1: Full-length human histidine-tagged Ndel1 phosphorylated in vitro by both cdk5/p25 and cdk1/cyclin B (human, UniProt Q9GZM8 1-345)
# T1 sequence: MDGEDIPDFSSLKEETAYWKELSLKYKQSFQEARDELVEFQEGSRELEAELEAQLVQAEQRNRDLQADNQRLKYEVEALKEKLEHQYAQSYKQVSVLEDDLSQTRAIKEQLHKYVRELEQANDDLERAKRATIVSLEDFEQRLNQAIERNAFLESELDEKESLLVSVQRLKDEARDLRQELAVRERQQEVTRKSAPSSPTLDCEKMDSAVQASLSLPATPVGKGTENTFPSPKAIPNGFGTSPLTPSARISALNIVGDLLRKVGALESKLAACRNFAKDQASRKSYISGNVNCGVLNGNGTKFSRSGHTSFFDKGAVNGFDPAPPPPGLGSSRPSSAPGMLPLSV
# B1: Full-length Lis1, histidine tag cleaved (natural protein)
# chain: MVLSQRQRDELNRAIADYLRSNGYEEAYSVFKKEAELDVNEELDKKYAGLLEKKWTSVIRLQKKVMELESKLNEAKEEFTSGGPLGQKRDPKEWIPRPPEKYALSGHRSPVTRVIFHPVFSVMVSASEDATIKVWDYETGDFERTLKGHTDSVQDISFDHSGKLLASCSADMTIKLWDFQGFECIRTMHGHDHNVSSVAIMPNGDHIVSASRDKTIKMWEVQTGYCVKTFTGHREWVRMVRPNQDGTLIASCSNDQTVRVWVVATKECKAELREHEHVVECISWAPESSYSSISEATGSETKKSGKPGPFLLSGSRDKTIKMWDVSTGMCLMTLVGHDNWVRGVLFHSGGKFILSCADDKTLRVWDYKNKRCMKTLNAHEHFVTSLDFHKTAPYVVTGSVDQTVKVWECR
# Biological target: T1, Full-length human histidine-tagged …
# Experiment: co-IP
binder,measurement,value
B1,fold more Lis1 pulled down than by unphosphorylated Ndel1,~5 fold
